Data taken from patent publication US20250019425A1 (ADRX, published 2025).
Like-named read-outs stand apart in the source and are kept apart here.

Columns and labels:
[1] = target: T1, biotinylated TTR F87M L110M monomer (Avi_mTTR in vivo biotinylation construct) (human, biotin on the Avi tag (in vivo biotinylation by BirA)); test: biolayer interferometry (Octet RED), antibody on anti-mouse biosensor, biotinylated TTR monomer
T1 construct: also called Biotinyl-Monomer; biotinyl-mTTR

[2] = target: TTR F87M L110M (monomeric TTR, mTTR), untagged (human, UniProt P02766 21-147); test: sandwich ELISA, antibody coated, untagged mTTR, HRP pan-TTR polyclonal detection
[3] = target: T1, biotinylated TTR F87M L110M monomer …; test: indirect ELISA, biotinylated mTTR on Neutravidin plate, anti-mouse-HRP
[4] = target: T1, biotinylated TTR F87M L110M monomer …; test: indirect ELISA, biotinyl-mTTR bound to avidin plates
[5] = target: T2, wild-type TTR (wtTTR), untagged (human, UniProt P02766 21-147); test: sandwich ELISA (Example 11): antibody coated on the plate, untagged TTR titrated, HRP-conjugated pan-TTR polyclonal antibody for detection
[6] = target: T3, TTR S112I (dimer TTR, dTTR), untagged (human, UniProt P02766 21-147); test: as above
[7] = target: T1, biotinylated TTR F87M L110M monomer …; test: indirect ELISA, biotinylated mTTR on Neutravidin plate, anti-mouse-HRP; indirect ELISA; biotinylated mTTR captured on Neutravidin plate, anti-mouse-HRP detection
[8] = target: T2, wild-type TTR (wtTTR), untagged; test: sandwich ELISA (Example 11): antibody coated on the plate, untagged TTR titrated, HRP-conjugated pan-TTR polyclonal antibody for detection; remark: listed apart in the source
[9] = target: T3, TTR S112I (dimer TTR, dTTR), untagged; test: as above; remark: listed apart in the source
[10] = target: T1, biotinylated TTR F87M L110M monomer …; test: indirect ELISA, biotinyl-mTTR bound to avidin plates; remark: listed apart in the source
[11] = target: biotinylated TTR S112I (dimer TTR) (human, UniProt P02766 21-147); test: indirect ELISA (Examples 4 and 8): biotinylated TTR on Neutravidin plate, antibody titrated, HRP-conjugated anti-species antibody
[12] = target: T2, wild-type TTR (wtTTR), untagged; test: sandwich ELISA (Example 11): antibody coated on the plate, untagged TTR titrated, HRP-conjugated pan-TTR polyclonal antibody for detection; remark: listed apart in the source
[13] = target: T3, TTR S112I (dimer TTR, dTTR), untagged; test: as above; remark: listed apart in the source

B1: murine anti-human monomer TTR antibody Ab2 (antibody, V domains shown)
VH: EVKLEQSGGGLVQPGGSMKLSCVASGFTFSNYWMNWVRQSPEKGLEWVAQIRLKSDNYATHYAESVKGRFTISRDDSKSSVYLQMNNLRAEDTGIYYCTGVFTYWGQGTLVTVSA
VL: NIVLTQSPASLAVSLGQRATISCRTSESVDSYGNSFMHWYQQKPGQPPKLLIYLASNLESGVPARFSGSGSRTDFTLTIDPVEADDAATYYCQQNNEDPMYTFGGGTKLEIK
notes: Murine monoclonal antibody; also called mAb 2; Antibody 2
[1]
  Kd: 6.21 nM
[2]
  EC50: 98.9 nM
[3]
  EC50: 1.45 nM
[4]
  EC50: 0.16 nM

B2: murine anti-human monomer TTR antibody Ab5 (antibody, V domains shown)
VH: EVQLQQSGAELVKPGASVKLSCTASGFNIKDYYMHWVKQRTEQGLEWIGRIDPEDGETKYAPKFQGKATITADTSSNTAYLQLSSLTSEDTAVYYCALLWLRRGRGYWGQGTTLTVSS
VL: DIQMTQSPSSLSASLGERVSLTCRASQEISGYLSWLQQKPDGTIKRLIYAASTLDSGVPKRFSGSRSGSDYSLTISSLESEDFADYYCLQYASYPPTFGAGTKLELK
notes: Murine monoclonal antibody; entries are called Mouse Ab5 HC / LC but hold only the variable domains; also called mAb 5; Antibody 5
[5]
  binding result: no binding (tested: about 20 µM TTR)
[6]
  binding result: no binding (tested: about 20 µM TTR)
[1]
  Kd: 1.31 nM
[2]
  EC50: ~14.2 nM
[3]
  EC50: 0.2 nM

B3: murine anti-human monomer TTR antibody Ab7 (antibody, V domains shown)
VH: EVQLQQSGAELVKPGASVKLSCTASGFNIKDYYMHWVKQRTEQGLEWIGRIDPEDGETKYAPKFQGKATITADTSSNTAYLQLSSLTSEDTAVYYCARGKTPFAYWGQGTLVTVSA
VL: DIQMTQSPSSLSASLGERVSLTCRASQEISGYLSWLQQKPDGTIKRLIYAASTLDFGVPKRFSGSRFGSDYSLTISSLESEDFADYYCLQYDSYPFTFGSGTKLEIK
notes: Murine monoclonal antibody; entries are called Mouse Ab7 HC / LC but hold only the variable domains; also called Antibody 7
[7]
  EC50: 4.22 nM
[2]
  EC50: ~43.2 nM
[8]
  binding result: no binding (tested: about 20 µM TTR)
[9]
  binding result: no binding (tested: about 20 µM TTR)

B4: Humanized Ab1 construct (antibody, V domains shown)
VH: QVQLVQSGAEVKKPGASVKVSCKASGYTFTSYWMHWVRQAPGQGLEWIGNIDPSDSETHYAQKFQGRATLTVDKSTSTVYMELSSLRSEDTAVYYCARGRNYWYFDVWGTGTMVTVSS
VL: DIQMTQSPSSLSASVGDRVTITCRASESVDNYGISFMNWFQQKPGKPPKLLIYAASNQGSGVPSRFSGSGSGTDFTLTISSLQPEDFATYYCQQSKEVPWTFGGGTKLEIK
notes: also called humanized antibody Ab1; humanized construct for Ab1
[10]
  fold weaker than the IgG2 form of Ab1: ~10 fold
[11]
  binding result: no binding (tested: about 60 nM antibody)
[4]
  EC50: 0.55 nM

B5: murine anti-human monomer TTR antibody Ab3 (antibody, V domains shown)
VH: EVQLQQSGPVLVKPGASVKMSCKASGYTFTDYYMNWVKQSHGKSLEWIGVINPYNGGTSYNQKFKGKATLTVDKSSSTAYMELNSLTSEDSAVYYCARDLTGTGGAMDYWGQGTSVTVSS
VL: QIVLTQSPAILSASPGEKVTMTCRASSSVSYMHWYQQKPGSSPKPWIYATSNLASGVPARFSGSGSGTSYSLTISRVEAEDAATYYCQQWSSNPLTFGAGTKLELK
notes: Murine monoclonal antibody; entries are called Mouse Ab3 HC / LC but hold only the variable domains; also called mAb 3; Antibody 3
[1]
  Kd: 12.1 nM
[2]
  EC50: 128 nM
[3]
  EC50: 14.1 nM
[12]
  binding result: no binding (tested: about 20 µM TTR)
[13]
  binding result: no binding (tested: about 20 µM TTR)

B6: murine anti-human monomer TTR antibody Ab6 (antibody, V domains shown)
VH: QVQLQQSGAELMKPGASVKLSCKATGYTFTGYWIEWVKQRPGHGLEWIGEILPGSGSTNYNEKFKGKATFTADTSSNTAYMQLSSLTTEDSAIYYCARLRGSSYPWYFDYWGQGTTLTVSS
VL: DIQMTQSPASLSVSVGETVTITCRASENIYSNLAWYQQKQGKSPQLLVYAATNLADGVPSRFSGSGSGTQYSLKINSLQSEDFGSYYCQHFWGTPYTFGGGTKLEIK
notes: Murine monoclonal antibody; entries are called Mouse Ab6 HC / LC but hold only the variable domains; also called Antibody 6
[1]
  Kd: 11.4 nM
[2]
  EC50: ~12.7 nM
[3]
  EC50: 0.45 nM
